Measured values published in US20250206841A1 (ADEPT THERAPEUTICS, published 2025).

T1: human Trop-2-His protein (human, UniProt P09758 27-274)
T1 construct: extracellular domain; Assay paragraphs say only 'Trop-2-His'; also called hTrop-2; Kactus Cat #TRP-HM121; not shown: His tag
T1 sequence (looked up): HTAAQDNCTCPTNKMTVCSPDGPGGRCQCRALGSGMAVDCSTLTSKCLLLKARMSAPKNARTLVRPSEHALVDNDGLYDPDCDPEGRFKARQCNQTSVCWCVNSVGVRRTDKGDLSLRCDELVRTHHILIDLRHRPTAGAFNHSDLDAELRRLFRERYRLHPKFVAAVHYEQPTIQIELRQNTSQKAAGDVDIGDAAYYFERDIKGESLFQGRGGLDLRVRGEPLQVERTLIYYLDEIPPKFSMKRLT

T2: cynomolgus Trop-2-His protein (cynomolgus, UniProt P09758 27-274 (human entry))
T2 construct: also called cynmolgus Trop-His; Kactus Cat #TRP-CM121; not shown: His tag
T2 chain: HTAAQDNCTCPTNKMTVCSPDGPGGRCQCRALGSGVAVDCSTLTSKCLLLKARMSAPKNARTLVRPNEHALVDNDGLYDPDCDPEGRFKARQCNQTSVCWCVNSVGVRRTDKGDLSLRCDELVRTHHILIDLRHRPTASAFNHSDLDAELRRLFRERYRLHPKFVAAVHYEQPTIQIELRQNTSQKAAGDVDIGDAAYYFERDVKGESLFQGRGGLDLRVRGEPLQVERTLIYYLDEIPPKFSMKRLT


Key:
human Trop-2-His protein = molecular target: T1, human Trop-2-His protein; experiment: BLI (Gator Prime), LEM supernatant Ab on HFC probe
Experimental: (§1) After three times of regeneration and neutralization of HFC probe (Gator, Cat #160003), LEM transfection supernatant samples to be tested in K buffer was diluted 1:1 in K buffer and immobilized onto HFC probe. […] The association and dissociation of human or cynomolgus Trop-2-His antigen from antibody was measured on BLI machine Gator Prime. Affinity was calculated using Gator Bio analysis software. Blank control was used for reference subtraction. 1 μg/ml of Sacituzumab govitecan was used as positive control.
(§2) Table 23 below summarizes the binding affinity of exemplary anti-Trop-2 antibodies in LEM transfection supernatant samples to human and cynomolgus Trop-2 using Gator.

[1] = molecular target: T2, cynomolgus Trop-2-His protein; experiment: BLI (Gator Prime), LEM supernatant Ab on HFC probe
Experimental: as §1, §2

Row | Binder | Kd (human Trop-2-His protein) [nM] | koff (human Trop-2-His protein) [s⁻¹] | kon (human Trop-2-His protein) [M⁻¹ s⁻¹] | Kd [1] [nM] | koff [1] [s⁻¹] | kon [1] [M⁻¹ s⁻¹]
1 | 1D10 (antibody, V domains shown, Rabbit-derived clone; LEM construct: VH + rabbit IgG CH1 + human IgG1 CH2-CH3) VH: QEQLKESGGGLVQPGGSLTLSCKASGFDFNYYGVSWVRQAPGKGLEWIGYIYPAYHNTYYATWVNGRFTISSHNAQNTLYLQLNTLTAADTATYFCARDAGSTDYNLNLWGPGTLVTVSS VL: DVVMTQTPASVEVAVGGTVTIKCQASEDIESYLAWYQQKPGQPPRLLIYEASKLASGVSSRFSGGGYGTDFTLTISGVECADAATYYCHQALTIGNVDNPFGGGGEVVVK | 0.53 | 0.00027 | 518000 | 0.361 | 0.00027 | 688000
2 | 9F7 (antibody, V domains shown, Rabbit-derived clone; LEM construct: VH + rabbit IgG CH1 + human IgG1 CH2-CH3) VH: QEQLKESGGGLVQPGGSLTLSCKASGFDFNNYGVSWVRQAPGKGLEWIGYIYPAYHNTYYATWVNGRFTISSHNAQNTLYLQLNTLTAADTATYFCARDTGSTDYNFNLWGPGTLVTVSS VL: DVVMTQTPASVEVAVGGTVTIKCQASEDIESYLAWYQQKPGQPPKLLIYEASKLASGVSSRFSGGGYGTEFTLTISGVECADAATYYCQQALTVGNVDNPFGGGSEVVVK | 0.11 | 5.8e-05 | 530000 | 0.145 | ~0.000112 | 774000
3 | 62E3 (antibody, V domains shown, Rabbit-derived clone; LEM construct: VH + rabbit IgG CH1 + human IgG1 CH2-CH3) VH: QEQLKESGGGLVQPGGSLKLSCKASGFDFNEYGVSWVRQAPGKGLEWIAYIYPAFHNTYYATWVNGRFTISSHNAQNTLYLQLNTLTAADTATYFCARDAGTTDYNFNLWGPGTLVTVSS VL: DVVMTQTASPVSAAVGGTVTIKCQASEDIESYLAWYQQKPGQPPKLLIYEASKLASGVSSRFSGSGYGTEFTLTISGVECADAATYYCQQALTIGNVDNPFGGGSEVVVK | 0.623 | 0.00038 | 607000 | 0.685 | 0.00045 | 651000
4 | 72F12 (antibody, V domains shown, Rabbit-derived clone; LEM construct: VH + rabbit IgG CH1 + human IgG1 CH2-CH3) VH: QEQLKESGGGLVQPGGSLKLSCKASGFDFNNYGVSWVRQAPGKGLEWIAYIYPAFHNTYYATWVNGRFTISSHNAQNTLYLQLNSLTAADTATYFCARDAGSVDYNFNLWGPGTLVTVSS VL: DVVMTQTPASVEVAVGGTVTIKCQASKNIDSNLAWYQQKPGQPPKQLIYAASTLASGVSSRFSGSGYGAEFTLTISGVECADAATYYCQQALTIGNVDNPFGGGSEVVVK | 0.574 | 0.00038 | 666000 | 0.526 | 0.00047 | 898000
5 | 9D7 (antibody, V domains shown, Rabbit-derived clone; LEM construct: VH + rabbit IgG CH1 + human IgG1 CH2-CH3) VH: QSLEESGGDLVQPGASLTLTCKASGFDLNNYSILWVRQAPGKGLEWIGCIYISGGSTYYANWAKGRFAISKTSSTTVTLQMTSLTAADTATYFCARDDGTASYYLNLWGPGTLVTVSS VL: YDMTQTPASVSEPVGGTVTIKCQASEDIYKLLAWYQQKPGQPPKLLIYAASDLESGVPSRFKGRGSGTDYTLTISDLECADAATYYCQQAYTIGNIDNSFGGGTEVVVK | 0.113 | 3.9e-05 | 342000 | 0.117 | 3.9e-05 | 528000
6 | 74F11/15F5 (antibody, human IgG1, V domains shown, LEM construct: VH + rabbit IgG CH1 + human IgG1 CH2-CH3) VH: QEQLKESGGGLVQPGGSLKLSCKASGFDFNNYGMSWVRQAPGKGLEWIAYIYPAFHNTYYANWVNGRFTISSDNAQNTVDLQLNSLTAADTATYFCARDAGSTDYNFNLWGPGTLVTVSS VL: DVVMTQTPASVEAAVGGTVTIKCQASEDIERYLAWYQQKPGQPPKLLIYEASKLPSGVSSRFSGSGYGTEFTLTISGVECADAATYYCQQALTIGYVDNPFGGGSEVVVK | 0.323 | 0.00017 | 526000 | 0.264 | 0.00017 | 758000
7 | 10A9 (antibody, V domains shown, Rabbit-derived clone; LEM construct: VH + rabbit IgG CH1 + human IgG1 CH2-CH3) VH: QSLEESGGDLVQPGASLTLTCKASGFDLNNYAMLWVRQAPGKGLEWIGCIYISGGTTYFASWATGRFAISKTSSTTVTLQMTSLTAADTATYFCARDDGTTSYYLNLWGPGTLVTVSS VL: YDMTQTPASVSAAVGGTVTIKCQASEDIYSLLAWYQQKPGQPPKLLIYGASNLESGVPSRFKGSGSGTEYTLTISDLECDDAATYYCQQAYTIGNIDNAFGGGTEVVVK | 0.142 | 5.3e-05 | 372000 | 0.108 | 5.3e-05 | 569000
8 | 5D4 (antibody, V domains shown, Rabbit-derived clone; LEM construct: VH + rabbit IgG CH1 + human IgG1 CH2-CH3) VH: QQLEESGGGLVKPEGSLTLTCKGSGFDFSGTYWMWWVRQAPGKGLEWIACIYVGSGSSTYYASWAKGRFTISSTSSTAVTLQATSLTAADTATYFCARGATNNVFMNYFNLWGPGTLVTVSS VL: FEMTQTPSSVSEPVGGTVTIKCQASEDISSNLGWYQQKPGQPPKLLIYGASTLASGVPSRFKGSGSGTEFTLTISDLECADAATYYCQTSYYIDDGVNGFGGGTEVVVK | 0.28 | 0.0001 | 358000 | 0.256 | 0.0001 | 577000
9 | 63H3 (antibody, V domains shown, Rabbit-derived clone; LEM construct: VH + rabbit IgG CH1 + human IgG1 CH2-CH3) VH: QEQLKESGGGLVQPGGSLKLSCKASGFDFNSYGVSWVRQAPGKGLEWIAYIYPAFHNAYYANWVNGRFTISSDNAQNTVDLQLNSLTAADTATYFCARDAGGTDYNYNLWGPGTLVTVSS VL: DVVMTQTPASVEVAVGGTVTLKCQASEDIESYSAWYQQKPGQPPNLLIYEASKLASGVSSRFSGSGYGTEFTLTISGVECADAATYYCQQALTIGNVDNPFGGGSEVVVR | 0.22 | 0.00016 | 704000 | 0.218 | 0.00016 | 740000
10 | 65D5 (antibody, V domains shown, Rabbit-derived clone; LEM construct: VH + rabbit IgG CH1 + human IgG1 CH2-CH3) VH: QEQLKESGGGLVQPGGSLKLSCKASGFDFNAYGVSWVRQAPGKGLEWIAYIYPAFHNTYYATWVNGRFTISSHNAQNTLYLQLNTLTAADTATYFCARDAGTTDYNFNLWGPGTLVTVSS VL: DIVMTQTPASVSEPVGGTVTIKCQASQSISSYLAWYQQKPGQPPKLLIYEATKLTSGVSSRFSGSGYGTEFTLTISGVECADAATYYCQQALTVGDVDNPFGGGSEVVVK | 0.656 | 0.00046 | 706000 | 0.628 | 0.00061 | 972000
11 | 66A1 (antibody, V domains shown, Rabbit-derived clone; LEM construct: VH + rabbit IgG CH1 + human IgG1 CH2-CH3) VH: QEQLKESGGGLVQPGGSLKLSCKASGFDFNNYGVSWVRQAPGKGLEWIAYIYPAFHNTYYASWVNGRFTISSHNAQNTLYLQLNSLTAADTATYFCARDAGGTDYAYNLWGPGTLVTVSS VL: DVVMTQTPASVEAAVGGTVSINCQASEDIESYLAWYQQKPGQPPKLLIYKASTLASGVSSRFKGSGSGKQFTLTISGVECADAATYYCQQVLTIGNVDNPFGGGSEVVVK | 0.426 | 0.00028 | 656000 | 0.367 | 0.00032 | 869000
